Consider 2 molecules from patent publication US20200171163A1 (Daiichi Sankyo, published 2020).

Positions count from the first letter of the chain named.

Experiment [1] has as its target T1, human CDH6 (full-length, on cells) (human, UniProt P55285 54-790).
T1 construct: also called hCDH6; full-length hCDH6
T1 sequence: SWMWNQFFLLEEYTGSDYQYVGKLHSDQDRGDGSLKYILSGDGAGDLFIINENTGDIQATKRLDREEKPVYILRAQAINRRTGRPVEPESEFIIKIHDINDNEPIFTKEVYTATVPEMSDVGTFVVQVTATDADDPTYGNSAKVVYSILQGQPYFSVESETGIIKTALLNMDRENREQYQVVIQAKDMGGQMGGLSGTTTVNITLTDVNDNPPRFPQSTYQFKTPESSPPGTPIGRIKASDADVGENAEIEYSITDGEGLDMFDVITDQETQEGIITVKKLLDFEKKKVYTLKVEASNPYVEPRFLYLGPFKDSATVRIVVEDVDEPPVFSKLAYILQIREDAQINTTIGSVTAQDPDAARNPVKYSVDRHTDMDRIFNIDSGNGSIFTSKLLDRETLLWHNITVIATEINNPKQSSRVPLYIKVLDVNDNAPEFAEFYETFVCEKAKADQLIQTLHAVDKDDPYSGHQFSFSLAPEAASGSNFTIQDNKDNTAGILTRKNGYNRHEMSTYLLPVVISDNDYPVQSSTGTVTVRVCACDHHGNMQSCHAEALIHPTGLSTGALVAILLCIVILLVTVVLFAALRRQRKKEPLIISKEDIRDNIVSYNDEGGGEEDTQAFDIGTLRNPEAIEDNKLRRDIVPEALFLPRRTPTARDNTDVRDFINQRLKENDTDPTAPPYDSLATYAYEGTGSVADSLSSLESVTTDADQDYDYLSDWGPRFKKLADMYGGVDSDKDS
The experiment is described as follows: flow cytometry, MFI vs antibody concentration; 293α cells transfected with pcDNA3.1-hCDH6; PE anti-human IgG Fcγ. The procedure: (§1) The CDH6-binding activity of the human chimeric anti-CDH6 antibody chG019 purified in 4)-2 was confirmed by flow cytometry. […] The cells were cultured overnight under conditions of 37° C. and 5% CO₂, and thereafter, a cell suspension was prepared. chG019 was added to the suspension of each of these cells. The cells were left standing at 4° C. for 1 hour. Thereafter, the cells were washed twice with PBS supplemented with 5% FBS, and then suspended by the addition of PE-labeled F(ab′)2 Fragment anti-human IgG, Fcγ antibody (Jackson ImmunoResearch Laboratories, Inc.) that had been 500-fold diluted with PBS supplemented with 5% FBS. The cells were left standing at 4° C. for 1 hour. The cells were washed twice with PBS supplemented with 5% FBS, and then re-suspended in PBS supplemented with 5% FBS, followed by detection using a flow cytometer (Canto II; BD Biosciences). The data was analyzed using FlowJo (Tree Star, Inc.). […] In FIG. 5, the abscissa depicts antibody concentration, and the ordinate depicts the amount of the antibody bound, based on mean fluorescence intensity.
Background: Flow cytometry measures light scatter and fluorescence of single cells or particles in a stream.

In experiment [2] the target is T2, cynomolgus monkey CDH6 (on cells) (cynomolgus monkey, UniProt P55285 54-790 (human entry)).
T2 construct: Expressed from pcDNA3.1-cynoCDH6; also called cynoCDH6
T2 sequence: T1 sequence with Y300H, H457R, A707G
The experiment is described as follows: flow cytometry, MFI vs antibody concentration; 293α cells transfected with pcDNA3.1-cynoCDH6; PE anti-human IgG Fcγ. The procedure: as §1

Experiment [3] deals with T1, human CDH6 (full-length, on cells). As to the kind of experiment: flow cytometry; 293α cells transfected with full-length hCDH6 (open) vs untransfected control cells (shaded); APC anti-human IgG. The protocol:
The cells were cultured overnight under conditions of 37° C. and 5% CO₂, and thereafter, a cell suspension was prepared. […] Thereafter, the cells were suspended by the addition of each of the 4 humanized hG019 antibodies (clone Nos: H01L02, H02L02, H02L03 and H04L02), which had been prepared in Example 5)-5-3, or the anti-CDH6 antibody NOV0712, which had been prepared in Reference Example 1, or human IgG1 (Calbiochem) as a negative control. The cells were left standing at 4° C. for 1 hour. The cells were washed twice with PBS supplemented with 5% FBS, and then suspended by the addition of APC-anti-human IgG goat F(ab′)2 (Jackson ImmunoResearch Laboratories, Inc.) that had been 500-fold diluted with PBS supplemented with 5% FBS. The cells were left standing at 4° C. for 1 hour. The cells were washed twice with PBS supplemented with 5% FBS, followed by detection using a flow cytometer (Canto II; BD Biosciences). The data was analyzed using FlowJo (Tree Star, Inc.). In the histograms of FIGS. 7-1 to 7-6, the abscissa depicts APC fluorescence intensity indicating the amount of the antibody bound, and the ordinate depicts cell count. […] Fluorescence intensity is enhanced when the antibody binds to full-length hCDH6 or each EC domain deletion mutant on cell surface. The human IgG1 control binds to none of the transfected cells.

In experiment [4] the target is T3, EC5 deletion mutant of human CDH6 (human, UniProt P55285 54-790).
T3 construct: In p3×FLAG-CMV-9; also called EC5-deleted hCDH6
T3 sequence: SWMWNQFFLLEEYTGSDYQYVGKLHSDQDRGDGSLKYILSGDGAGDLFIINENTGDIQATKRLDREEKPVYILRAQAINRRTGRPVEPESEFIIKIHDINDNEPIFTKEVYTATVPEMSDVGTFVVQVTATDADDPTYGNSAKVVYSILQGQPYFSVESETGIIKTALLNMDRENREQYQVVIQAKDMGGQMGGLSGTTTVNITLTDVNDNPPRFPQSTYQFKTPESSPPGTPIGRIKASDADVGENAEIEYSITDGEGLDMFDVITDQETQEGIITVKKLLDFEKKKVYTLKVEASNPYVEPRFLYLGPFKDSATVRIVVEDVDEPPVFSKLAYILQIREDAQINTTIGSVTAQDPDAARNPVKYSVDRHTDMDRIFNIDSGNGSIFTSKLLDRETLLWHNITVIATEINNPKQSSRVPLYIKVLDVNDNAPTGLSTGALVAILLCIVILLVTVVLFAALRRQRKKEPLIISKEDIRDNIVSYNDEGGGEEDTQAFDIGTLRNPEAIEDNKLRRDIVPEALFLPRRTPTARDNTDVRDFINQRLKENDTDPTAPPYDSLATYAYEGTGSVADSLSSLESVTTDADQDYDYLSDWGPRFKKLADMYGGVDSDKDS
The experiment is described as follows: flow cytometry; 293α cells transfected with EC5-deleted hCDH6 (open) vs untransfected control cells (shaded); APC anti-human IgG. The protocol: Thereafter, the cells were suspended by the addition of each of the 4 humanized hG019 antibodies (clone Nos: H01L02, H02L02, H02L03 and H04L02), which had been prepared in Example 5)-5-3, or the anti-CDH6 antibody NOV0712, which had been prepared in Reference Example 1, or human IgG1 (Calbiochem) as a negative control. The cells were left standing at 4° C. for 1 hour. The cells were washed twice with PBS supplemented with 5% FBS, and then suspended by the addition of APC-anti-human IgG goat F(ab′)2 (Jackson ImmunoResearch Laboratories, Inc.) that had been 500-fold diluted with PBS supplemented with 5% FBS. The cells were left standing at 4° C. for 1 hour. The cells were washed twice with PBS supplemented with 5% FBS, followed by detection using a flow cytometer (Canto II; BD Biosciences). The data was analyzed using FlowJo (Tree Star, Inc.). In the histograms of FIGS. 7-1 to 7-6, the abscissa depicts APC fluorescence intensity indicating the amount of the antibody bound, and the ordinate depicts cell count. […] Fluorescence intensity is enhanced when the antibody binds to full-length hCDH6 or each EC domain deletion mutant on cell surface. The human IgG1 control binds to none of the transfected cells.

B1: human chimeric anti-CDH6 antibody chG019 (antibody, human IgG1)
heavy: not shown
light: DIQMTQSPSLLSASVGDRVTLNCKASQNIYKNLAWYQQKLGEGPKLLIYDANTLQTGIPSRFSGSGSGSDFTLTISSLQPEDVATYFCQQYYSGWAFGGVTNLELKRAVAAPSVFIFPPSDEQLKSGTASVVCLLNNFYPREAKVQWKVDNALQSGNSQESVTEQDSKDSTYSLSSTLTLSKADYEKHKVYACEVTHQGLSSPVTKSFNRGEC
notes: Human IgG1/kappa chimera; also called chG019 antibody; chimeric G019 antibody
Turning to B1, the “EC50 (read off the curve)” value in experiment [1] and in experiment [2] was around 0.01 µg/mL each time.

B2: anti-CDH6 antibody NOV0712 (antibody, V domains shown)
VH: QVQLLESGGGLVQPGGSLRLSCAASGFTFSSHGMHWVRQAPGKGLEWVSVISGSGSNTGYADSVKGRFTISRDNSKNTLYLQMNSLRAEDTAVYYCARQWGSYAFDSWGQGTLVTVSS
VL: DIQMTQSPSSLSASVGDRVTITCRASQSISSYLNWYQQKPGKAPKLLIYAVSTLQSGVPSRFSGSGSGTDFTLTISSLQPEDFATYYCQQSGTFPPTTFGQGTKVEIKR
notes: also called NOV0712 antibody; labeled NOV0712
Regarding B2, the binding result is “binds” in experiment [3] and “no binding (tested: not given (single concentration))” in experiment [4].
